Reference: patent US20140298544A1, “Engineered PEP carboxylase variants for improved plant productivity” (PIONEER HI BRED INTERNATIONAL INC, priority 2011, published 2014)
Read-outs that look alike come from different tables or passages of the source. Each block holds one molecule with its values, some of them ahead of it.

Test system: maize C4 PEPC
Experiment: Kinetic and regulatory properties of PEPC variants (expressed in E. coli)
Format: biochemical
Conditions: for PEP, no activators kcat/S0.5 / PEP, no activators kcat/S0.5 % wt / PEP, with activators kcat/S0.5 / kcat/S0.5 Fold incr. / PEP, with activators kcat/S0.5 % wt: PEP substrate; for PEP, no activators kcat/S0.5 % wt / PEP, with activators kcat/S0.5 % wt / Glc-6-P A0.5 % wt / Glycine A0.5 % wt / HCO3 kcat/S0.5 % wt / Malate Ki % wt / Ki for malate, in words / Vmax, in words / activation by glucose-6-phosphate, in words / activation by glycine, in words: relative to wild type; for kcat/S0.5 Fold incr.: with activators vs no activators; for HCO3 S0.5 / HCO3 kcat/S0.5 / HCO3 kcat/S0.5 % wt: bicarbonate substrate; for Ki / Malate Ki % wt: inhibitor malate
From the text: Libraries of modified PEPC polynucleotides were generated using recursive sequence recombination methods (Stemmer, Proc. Natl. Acad. Sci USA 91:10747-10751; Ness, et. al., Nature Biotechnology 20:1251-1255), also known as gene shuffling methods. These libraries incorporated diversity from related PEPC enzymes and also incorporated other designed and random changes. The starting polynucleotide sequence in which the diversity was incorporated was the maize C4 PEPC as shown in SEQ ID NO: 25. Each PEPC variant was expressed in E. coli as a thioredoxin fusion using the pET 32 expression vector (Novagen) with the E. coli expression strain Rosetta gami 2 BL21 DE3 pLYS S. Cultures expressing the variants were grown in 96-well culture blocks, lysed, and then PEPC activity and PEPC protein abundance were determined. The variants with high specific activity were subjected to further rounds of shuffling, for a total of 3 rounds. Examples of nucleotide and amino acid sequences of PEPC variants obtained with this method are SEQ ID NO: 4 to 24.
Detailed kinetic studies of PEPC variants were done in accordance with methods known in the art. See, for example, Tovar-Mendez et al. (2000) Plant Physiol. 123: 149-160; Tover-Mendez et al. (1998) Biochem. J. 332: 633-642.
PEPC variants had several improved properties in comparison with wild type PEPC, including greater affinity (lower S0.5 values) with respect to the bicarbonate substrate, greater Kcat/S0.5 values with the bicarbonate or PEP substrates, greater activation (lower A0.5 values) with […] or glycine as activators and greater Ki values with malate as inhibitor.

[1] = activator Glc-6-P, read-out: Glc-6-P A0.5
[2] = activator glycine, read-out: Glycine A0.5

EC50 [1]: 5.11 mM
EC50 [2]: 0.7 mM
B1: 3F30-F12: maize C4 PEPC variant, 7 amino acid substitutions, SEQ ID NO: 11 (protein)
chain: MASTKAPGPGEKHHSIDAQLRQLVPGKVSEDDKLIEYDALLVDRFLNILQDLHGPSLREFVQECYEVSADYEGKGDTTKLGELGAKLTGLAPADAILVASSILHMLNLANLAEEAQIAHRRRNSKLKKGGFADEGSATTESDIEETLKRLVSEVGKSPEEVFEALKNQTVDLVFTAHPTQSARRSLLQKNAGIRNCLTQLNAKDITDGDKQELDEALQREIQAAFRTDEIRRAQPTPQDEMRYGMSYIHETVWKGVPKFLRRVDTALKNIGINERLPYNVSLIRFSSWMGGDRDGNPRVTPEVTRDVCLLARMMAANLYIDQIEELMFELSMWRCNDELRVRAEELHSSSGSKVTKYYIEFWKQIPPNEPYRVILGHVRDKLYNTRERARHLLASGVSEISAESSFTSIEEFLEPLELCYKSLCDCGDKAIADGSLLDLLRQVFTFGLSLVKLDIRQESERHTDVIDAITTHLGIGSYREWSEDKRQEWLLSELRGKRPLLPPDLPQTDEIADVIGAFHVLAELPPDSFGPYIISMATAPSDVLAVELLQRECGIKQPLPVVPLFERLADLQSAPASVERLFSVDWYMDRIKGKQQVMVGYSDSGKDAGRLSAAWQLYKAQEEMAQVAKRYGVKLTLFHGRGGTVGRGGGPTHLAILSQPPDTINGSIRVTVQGEVIEFCFGEEHLCFQTLQRFTAATLEHGMHPPVSPKPEWRKLMDEMAVVATEEYRSVVVKEPRFVEYFRSATPETEYGRMNIGSRPAKRRPGGGITTLRAIPWIFSWTQTRFHLPVWLGVGAAFKFAIDKDVRNFQVLKEMYNEWPFFRVTLDLLEMIFAKGDPGIAGLYDELLVAEELKPFGKQLRDKYVETQQLLLQIAGHKDILEGDPFLKQGLVLRNPYITTLNVFQAYTLKRIRDPNFKVTPQPPLSKEFADENKPAGLVKLNPASEYPPGLEDTLILTMKGIAAGMQNTG
modifications: shuffled variant
PEP, no activators kcat/S0.5: 89800 M⁻¹ s⁻¹
PEP, no activators kcat/S0.5 % wt: 263 % wt
PEP, with activators kcat/S0.5: 4.496e+06 M⁻¹ s⁻¹
kcat/S0.5 Fold incr.: 50.1 Fold incr.
PEP, with activators kcat/S0.5 % wt: 184 % wt
Glc-6-P Vmax Fold incr (activator Glc-6-P): 12.6 Fold incr
Glc-6-P A0.5 % wt (activator Glc-6-P): 75 % wt
Glycine Vmax Fold incr (activator glycine): 11.3 Fold incr
Glycine A0.5 % wt (activator glycine): 19 % wt
HCO3 S0.5: 0.0248 mM
HCO3 kcat/S0.5: 3.481e+06 M⁻¹ s⁻¹
HCO3 kcat/S0.5 % wt: 164 % wt
Ki: 3.3 mM
Malate Ki % wt: 825 % wt
Ki for malate, in words: increased Ki
Vmax, in words: better Vmax
activation by glucose-6-phosphate, in words: increased activation
activation by glycine, in words: increased activation

EC50 [1]: 3.85 mM
EC50 [2]: 0.76 mM
B2: 3C9-C9: maize C4 PEPC variant, 8 amino acid substitutions, SEQ ID NO: 22 (protein)
chain: MASTKAPGPGEKHHSIDAQLRQLVPGKVSEDDKLIEYDALLVDRFLNILQDLHGPSLREFVQECYEVSADYEGKGDTTKLGELGAKLTGLAPADAILVASSILHMLNLANLAEEVQIARRRRNSKLKKGGFADEGSATTESDIEETLKRLVSEVGKSPEEVFEALKNQTVDLVFTAHPTQSARRSLLQKNAGIRNCLTQLNAKDITDDDKQELDEALQREIQAAFRTDEIRRAQPTPQDEMRYGMSYIHETVWKGVPKFLRRVDTALKNIGINERLPYNVSLIRFSSWMGGDRDGNPRVTPEVTRDVCLLARMMAANLYINQIEELMFELSMWRCNDELRVRAEELHSSSGSKVTKYYIEFWKQIPPNEPYRVILGHVRDKLYNTRERARHLLASGVSEISAEASFTSIEEFLEPLELCYKSLCDCGDKAIADGSLLDLLRQVFTFGLSLVKLDIRQESERHTDVIDAITTHLGIGSYREWSEDKRQEWLLSELKGKRPLLPPDLPQTDEIADVIGAFHVLAELPPDSFGPYIISMATAPSDVLAVELLQRECGIKQPLPVVPLFERLADLQSAPASVERLFSVDWYMDRIKGKQQVMVGYSDSGKDAGRLSAAWQLYKAQEEMAQVAKRYGVKLTLFHGRGGTVGRGGGPTHLAILSQPPDTINGSIRVTVQGEVIEFCFGEEHLCFQTLQRFTAATLEHGMHPPVSPKPEWRKLMDEMAVVATEEYRSVVVKEPRFVEYFRSATPETEYGRMNIGSRPAKRRPGGGITTLRAIPWIFSWTQTRFHLPVWLGVGAAFKFAIDKDVRNFQVLKEMYNEWPFFRVTLDLLEMVFAKGDPGIAGLYDELLVAEELKPFGKQLRDKYVETQQLLLQIAGHKDILEGDPFLKQGLVLRNPYITTLNVFQAYTLKRIRDPNFKVTPQPPLSKEFADENKPAGLVKLNPASEYPPGLEDTLILTMKGIAAGMQNTG
modifications: shuffled variant
PEP, no activators kcat/S0.5: 79600 M⁻¹ s⁻¹
PEP, no activators kcat/S0.5 % wt: 234 % wt
PEP, with activators kcat/S0.5: 3.831e+06 M⁻¹ s⁻¹
kcat/S0.5 Fold incr.: 48.1 Fold incr.
PEP, with activators kcat/S0.5 % wt: 157 % wt
Glc-6-P Vmax Fold incr (activator Glc-6-P): 11.4 Fold incr
Glc-6-P A0.5 % wt (activator Glc-6-P): 57 % wt
Glycine Vmax Fold incr (activator glycine): 11.5 Fold incr
Glycine A0.5 % wt (activator glycine): 21 % wt
HCO3 S0.5: 0.021 mM
HCO3 kcat/S0.5: 3.606e+06 M⁻¹ s⁻¹
HCO3 kcat/S0.5 % wt: 170 % wt
Ki: 2 mM
Malate Ki % wt: 500 % wt

EC50 [1]: 3.02 mM
EC50 [2]: 0.56 mM
B3: 3C2-H4: maize C4 PEPC variant, 6 amino acid substitutions, SEQ ID NO: 12 (protein)
chain: MASTKAPGPGEKHHSIDAQLRQLVPGKVSEDDKLIEYDALLVDRFLNILQDLHGPSLREFVQECYEVSADYEGKGDTTKLGELGAKLTGLAPADAILVASSILHMLNLANLAEEVQIARRRRNSKLKKGGFADEGSATTESDIEETLKRLVSEVGKSPEEVFEALKNQTVDLVFTAHPTQSARRSLLQKNAGIRNCLTQLNAKDITDDDKQELDEALQREIQAAFRTDEIRRAQPTPQDEMRYGMSYIHETVWKGVPKFLRRVDTALKNIGINERLPYNVSLIRFSSWMGGDRDGNPRVTPEVTRDVCLLARMMAANLYIDQIEELMFELSMWRCNDELRVRAEELHSSSGSKVTKYYIEFWKQIPPNEPYRVILGHVRDKLYNTRERARHLLASGVSEISAEASFTSIEEFLEPLELCYKSLCDCGDKAIADGSLLDLLRQVFTFGLSLVKLDIRQESERHTDVIDAITTHLGIGSYREWSEDKRQEWLLSELKGKRPLLPPDLPQTDEIADVIGAFHVLAELPPDSFGPYIISMATAPSDVLAVELLQRECGVRQPLPVVPLFERLADLQSAPASVERLFSVDWYMDRIKGKQQVMVGYSDSGKDAGRLSAAWQLYKAQEEMAQVAKRYGVKLTLFHGRGGTVGRGGGPTHLAILSQPPDTINGSIRVTVQGEVIEFCFGEEHLCFQTLQRFTAATLEHGMHPPVSPKPEWRKLMDEMAVVATEEYRSVVVKEPRFVEYFRSATPETEYGRMNIGSRPAKRRPGGGITTLRAIPWIFSWTQTRFHLPVWLGVGAAFKFAIDKDVKNFQVLKEMYNEWPFFRVTLDLLEMVFAKGDPGIAGLYDELLVAEELKPFGKQLRDKYVETQQLLLQIAGHKDILEGDPFLKQGLVLRNPYITTLNVFQAYTLKRIRDPNFKVTPQPPLSKEFADENKPAGLVKLNPASEYPPGLEDTLILTMKGIAAGMQNTG
modifications: shuffled variant
PEP, no activators kcat/S0.5: 64100 M⁻¹ s⁻¹
PEP, no activators kcat/S0.5 % wt: 188 % wt
PEP, with activators kcat/S0.5: 3.919e+06 M⁻¹ s⁻¹
kcat/S0.5 Fold incr.: 61.2 Fold incr.
PEP, with activators kcat/S0.5 % wt: 160 % wt
Glc-6-P Vmax Fold incr (activator Glc-6-P): 7.6 Fold incr
Glc-6-P A0.5 % wt (activator Glc-6-P): 44 % wt
Glycine Vmax Fold incr (activator glycine): 10.3 Fold incr
Glycine A0.5 % wt (activator glycine): 16 % wt
HCO3 S0.5: 0.026 mM
HCO3 kcat/S0.5: 3.581e+06 M⁻¹ s⁻¹
HCO3 kcat/S0.5 % wt: 169 % wt
Ki: 1 mM
Malate Ki % wt: 250 % wt
Ki for malate, in words: increased Ki
Vmax, in words: better Vmax
activation by glucose-6-phosphate, in words: increased activation
activation by glycine, in words: increased activation
